Among the data in paper PMC7697860 are Kd, koff and kon values, retold here.

The target of test [1] is GST-PfPV1 (wheat germ cell-free expression) (Plasmodium falciparum 3D7). The experiment in a line: SPR; […] (amine coupling), […]; Biacore X100, single-cycle kinetics, 1:1; HBS-EP+ (10 mM HEPES pH 7.4, 150 mM NaCl, 3 mM EDTA, 0.05% P20).
Test [2] shares this target. The description is as above. The source holds these as a separate data set.

Like-named read-outs stand apart in the source and are kept apart here.

In general, Kd refers to the equilibrium constant for the complex coming apart. Lower therefore signals tighter binding. In general, koff refers to a measure of how fast the partners let go of each other. Low readings indicate slow dissociation, high ones fast dissociation. For orientation: kon means the second-order rate constant of association.

In test [1], GST-EXP2 (natural protein) showed a dissociation constant (Kd) of 110 nM, a koff of 0.000989 s⁻¹ and an association rate constant (kon) of 9030 M⁻¹ s⁻¹.
As to GST-PTEX150 (natural protein), in test [2], the dissociation constant Kd came to 54.6 nM. Further, in test [1], the dissociation constant (Kd) amounted to 54.5 nM, the dissociation rate constant (koff) turned out to be 0.00204 s⁻¹ and the on-rate (kon) is 37300 M⁻¹ s⁻¹.
As for GST-HSP101 (natural protein), in test [1], the Kd was found to be 10.5 nM, the koff was 0.000914 s⁻¹ and the on-rate (kon) was 87000 M⁻¹ s⁻¹.
